Results: patent US20100028924A1, “Method Of Diagnosing Pon1-Hdl Associated Lipid Disorders” (Rappaport Family Institute Research in the Medical Sciences, priority 2006, published 2010)
Numbering of substitutions follows the chain as printed.

B1: wt rePON1-192K: recombinant wild-type PON1 variant G3C9 with C-terminal His8-tag, lysine at position 192, close homologue of rabbit PON1 (protein)
chain: MAKLTALTLLGLGLALFDGQKSSFQTRFNVHREVTPVELPNCNLVKGVDNGSEDLEILPNGLAFISSGLKYPGIMSFDPDKSGKILLMDLNEEDPVVLELGITGNTLDISSFNPHGISTFTDEDNTVYLLVVNHPDSSSTVEVFKFQEEEKSLLHLKTIRHKLLPSVNDIVAVGPEHFYATNDHYFADPYLKSWEMHLGLAWSFVTYYSPNDVRVVAEGFDFANGINISPDGKYVYIAELLAHKIHVYEKHANWTLTPLKSLDFDTLVDNISVDPVTGDLWVGCHPNGMRIFYYDPKNPPGSEVLRIQDILSEEPKVTVVYAENGTVLQGSTVAAVYKGKLLIGTVFHKALYCEL
modifications: C-terminal His8 tag; WT rePON1-192K
notes: recombinant wild-type PON1 variant G3C9 with C-terminal His8-tag, lysine at position 192, close homologue of rabbit PON1
B2: rePON1-192R: recombinant PON1 with arginine at position 192, generated to mimic the human R isozyme (protein)
chain: B1 chain with K192R
modifications: rePON1-192R isozyme
notes: recombinant PON1 with arginine at position 192, generated to mimic the human R isozyme

What was measured:
[1] = biological target: apoA-I rHDL; details: previously shown; could not be determined accurately by SPR; cited from earlier work
[2] = Inactivation kinetics of rePON1 192 isozymes in activity buffer; format: biochemical; details: EDTA and β-mercaptoethanol, 37° C.
Description: (§1) FIG. 1 is a graph showing the inactivation kinetics of the wild-type rePON1-192K (SEQ ID NO:2), -192R (SEQ ID NO:4) and -192Q (SEQ ID NO:6) isozymes, bound to rHDL-apoA-I, or in buffer. Delipidated enzymes were incubated with a 50-fold excess of rHDL-apoA-I, or in activity buffer, and subjected to inactivation in the presence of EDTA (5 mM) and β-mercaptoethanol (10 mM) at 37° C. Residual activity at various time points was determined by initial rates of phenyl acetate hydrolysis (2 mM) and plotted as percent of the activity at time zero. Data were fitted to a single exponential for wild-type rePON1-192K on rHDL-apoA-I, and to double-exponentials for the remaining samples. The inactivation rate constants and amplitudes were derived from this fit;
(§2) Inactivation rates of rePON1s were measured as described [Gaidukov, L. and D. S. Tawfik, Biochemistry, 2005. 44(35): p. 11843-54]. Briefly, rePON1 samples were delipidated using Bio-Beads SM-2 (BioRad) and incubated in buffer, or with 50-fold molar excess of rHDL-apoA-I. EDTA (10 mM) and β-mercaptoethanol (20 mM) were added, and samples were incubated at 37° C. Residual activity at different time points was determined with 2 mM phenyl acetate, and inactivation rates were fitted to either mono- or double-exponentials [Gaidukov, L. and D. S. Tawfik, Biochemistry, 2005. 44(35): p. 11843-54].
(§3) The resultant inactivation profiles of wt rePON1 (SEQ ID NO: 2), rePON1-192Q (SEQ ID NO: 6) and rePON1-192R (SEQ ID NO: 4), were fitted to exponential curves as illustrated in FIG. 1.

[3] = system: apoA-I rHDL; test: Stimulation of enzymatic activity of rePON1 192 isozymes by rHDL-apoA-I; format: biochemical; details: for Vmax (%) activation factor: relative to delipidated enzyme (100%)
Text: The activity is presented in relation to the initial activity of the delipidated enzymes (percentage of stimulation). Data were fitted to the Langmuir saturation curve, from which the activation factor (Vmax) and the apparent affinity (Kapp) were derived;
Stimulated activity is presented as the percentage of the initial activity of the delipidated enzymes (corresponds to 100%). Data were fitted to the Langmuir saturation curve, from which the activation factor (Vmax) and the apparent affinity (Kapp) were derived;
Delipidated rePONs at 0.2 μM were incubated with a range of rHDL concentrations (0.1-10 μM) for 3 hrs at 37° C. Enzymatic activity was determined in activity buffer (50 mM Tris pH 8.0, 1 mM CaCl2) with substrates at 1 mM concentrations as described [Gaidukov, L. and D. S. Tawfik, Biochemistry, 2005. 44(35): p. 11843-54]. 5-(thiobutyl)-butyrolactone (TBBL) was applied at 0.25 mM, and product formation was monitored spectrophotometrically at 412 nm using 5,5′-dithio-bis-2-nitrobenzoic acid (DTNB) as described [Khersonsky, O. and D. S. Tawfik, Chembiochem, 2006. 7(1): p. 49-53].
Stimulation of the enzymatic activity was examined by incubating rePON1 isozymes with a range of rHDL concentrations (at the HDL/PON ratio of 0.5-50), and measuring the catalytic activity with various substrates as detailed hereinabove. FIGS. 3A-B illustrate the enzymatic activity of the rePON1 isozymes with δ-nonanoic lactone as substrate (FIG. 3A) and thiobutyl butiryl lactone (TBBL) as substrate (FIG. 3B). FIGS. 4A-D illustrate the enzymatic activity of the rePON1 isozymes with γ-dodecanoic lactone as substrate (FIG. 4A), δ-valerolactone as substrate (FIG. 4B), phenyl acetate as substrate (FIG. 4C) and paraoxon as substrate (FIG. 4D). Data were fitted to the Langmuir saturation curve to give the activation factor Vmax (in percent relative to the delipidated PON1) and the apparent affinity Kapp.

[4] = system: apoA-I rHDL; test: Inactivation kinetics of rePON1 192 isozymes bound to rHDL-apoA-I (EDTA/β-mercaptoethanol, residual phenyl acetate hydrolysis); format: biochemical; details: apoA-I rHDL, 50-fold molar excess; EDTA and β-mercaptoethanol, 37° C.
Description: as §1, §2, §3

[5] = system: apoA-I rHDL; test: Surface plasmon resonance binding of Δ20-rePON1 192 isozymes to immobilized rHDL-apoA-I; details: relative to the Q isozyme
Description: FIGS. 2A-C are sensorgrams for the binding of wt Δ20-rePON1-192K—SEQ ID NO:8 (FIG. 2A), Δ20-rePON1-192R—SEQ ID NO:10 (FIG. 2B) and Δ20-rePON1-192Q—SEQ ID NO:12 (FIG. 2C) isozymes to rHDL-apoA-I. Biotinylated rHDL-apoA-I particles were immobilized onto the streptavidin surface (SA chip), and a series of PON1 concentrations were injected over the immobilized and blank surfaces to obtain the net binding response. Binding was performed at 25° C. Association and dissociation phases were fitted to a single exponential, from which kinetic rate constants were derived. PON1 concentrations in all the sensorgrams are (from bottom to top) 25, 40, 60, 80, 100, 150 and 200 nM;
Surface plasmon resonance (SPR) measurements: rHDL-apoA-I particles containing 0.7% of N-biotinyl-dipalmitoylphosphatidylethanolamine (N-biotynyl-DPPE; Avanti Polar Lipids) were prepared and purified as described [Gaidukov, L. and D. S. Tawfik, Biochemistry, 2005. 44(35): p. 11843-54]. SPR was performed on BIAcore 3000 (Uppsala, Sweden) as described [Gaidukov, L. and D. S. Tawfik, Biochemistry, 2005. 44(35): p. 11843-54]. Briefly, the biotinylated rHDL particles were adsorbed on streptavidin (SA5) chip, and Δ20-rePON1 isozymes were injected over the immobilized and blank surfaces to obtain the net binding response. Binding rate constants were obtained by fitting of association and dissociation phases to single exponentials as described [Gaidukov, L. and D. S. Tawfik, Biochemistry, 2005. 44(35): p. 11843-54].
The above results were further supported by affinity measurements using surface plasmon resonance. It was previously shown that HDL affinity of the intact rePON1 is very high (sub-nanomolar) and could not be determined accurately using surface plasmon resonance [Gaidukov, L., and Tawfik, D. S. (2005)Biochemistry 44, 11843-11854]. In contrast, binding affinity of the truncated variant lacking the first 20 amino acids of the hydrophobic N-terminus (Δ20-rePON1) could be amply determined. Therefore, the truncated variants of PON1 192 isozymes were prepared and their HDL binding affinities measured. Typical binding sensorgrams between Δ20-rePON1 isozymes and the immobilized HDL particles are portrayed in FIGS. 2A-C, and the derived rate and affinity constants are summarized in Table 2 herein below.

[6] = substrate γ-dodecanoic lactone 1 mM
[7] = substrate δ-nonanoic lactone 1 mM

| Molecule | HDL affinity of the intact rePON1 [1] | k1^inactiv (first, fast phase) [2] [h⁻¹] | k2^inactiv (second, slow phase) [2] [h⁻¹] | Kapp (apparent affinity for HDL stimulation) ([3]; substrate TBBL 0.25 mM) [µM] | Vmax (%) activation factor ([3]; substrate TBBL 0.25 mM) [%] | Kapp (apparent affinity for HDL stimulation) ([3]; substrate paraoxon 1 mM) [µM] | Vmax (%) activation factor ([3]; substrate paraoxon 1 mM) [%] | Kapp (apparent affinity for HDL stimulation) ([3]; substrate phenyl acetate 1 mM) [µM] | Vmax (%) activation factor ([3]; substrate phenyl acetate 1 mM) [%] | Kapp (apparent affinity for HDL stimulation) [3, 6] [µM] | Vmax (%) activation factor [3, 6] [%] | Kapp (apparent affinity for HDL stimulation) [3, 7] [µM] | Vmax (%) activation factor [3, 7] [%] | Kapp (apparent affinity for HDL stimulation) ([3]; substrate δ-valerolactone 1 mM) [µM] | Vmax (%) activation factor ([3]; substrate δ-valerolactone 1 mM) [%] | A2 (%) (amplitude of second, slow inactivation phase = HDL-bound fraction) [4] | k2^inactiv (second, slow phase) [4] [h⁻¹] | fold higher HDL binding affinity than the Q isozyme [5] [fold] | reduction of Vmax compared to wt rePON1-192K ([3]; all the substrates tested) | k1^inactiv (first, fast phase) [4] [h⁻¹] |
| --- | --- | --- | --- | --- | --- | --- | --- | --- | --- | --- | --- | --- | --- | --- | --- | --- | --- | --- | --- | --- |
| B1 | sub-nanomolar | 4.5 | 0.2 | 0.5 ± 0.1 | 791 ± 10 | 0.6 ± 0.1 | 222 ± 2 | 0.5 ± 0.1 | 425 ± 4 | 1.2 ± 0.1 | 1830 ± 22 | 1.3 ± 0.1 | 1580 ± 19 | 1.3 ± 0.1 | 1724 ± 23 | 100 | 0.01 | 3 |  |  |
| B2 |  | 5.5 | 0.2 | 0.4 ± 0.1 | 579 ± 6 |  | 200 ± 1 | 0.8 ± 0.1 | 336 ± 4 | 0.9 ± 0.1 | 1258 ± 21 | 1.5 ± 0.1 | 1351 ± 20 | 1.1 ± 0.1 | 1403 ± 13 | 90 | 0.01 |  | 10-30% | 0.9 |
